Source: patent US6030780, “Purified Stat proteins and methods of purifying thereof” (The Rockefeller University)

Key:
[1] = molecular target: Stat1tc, phosphorylated Tyr701 (Homo sapiens) (UniProt P42224); test: EMSA
[2] = molecular target: T1, Stat1alpha, phosphorylated Tyr701 (Homo sapiens, UniProt P42224 P42224:1-750); test: EMSA; 2x(dimer) complex stable, >30 min for partial displacement by 100x competitor; conditions: tags: baculovirus/Sf9; NEM-alkylated; phosphorylated in vitro by EGF-receptor kinase; chain copies: 2; label: 32P; protruding 5'-TCC; two tandem sites
T1 sequence (P42224 whole entry, one chain of several): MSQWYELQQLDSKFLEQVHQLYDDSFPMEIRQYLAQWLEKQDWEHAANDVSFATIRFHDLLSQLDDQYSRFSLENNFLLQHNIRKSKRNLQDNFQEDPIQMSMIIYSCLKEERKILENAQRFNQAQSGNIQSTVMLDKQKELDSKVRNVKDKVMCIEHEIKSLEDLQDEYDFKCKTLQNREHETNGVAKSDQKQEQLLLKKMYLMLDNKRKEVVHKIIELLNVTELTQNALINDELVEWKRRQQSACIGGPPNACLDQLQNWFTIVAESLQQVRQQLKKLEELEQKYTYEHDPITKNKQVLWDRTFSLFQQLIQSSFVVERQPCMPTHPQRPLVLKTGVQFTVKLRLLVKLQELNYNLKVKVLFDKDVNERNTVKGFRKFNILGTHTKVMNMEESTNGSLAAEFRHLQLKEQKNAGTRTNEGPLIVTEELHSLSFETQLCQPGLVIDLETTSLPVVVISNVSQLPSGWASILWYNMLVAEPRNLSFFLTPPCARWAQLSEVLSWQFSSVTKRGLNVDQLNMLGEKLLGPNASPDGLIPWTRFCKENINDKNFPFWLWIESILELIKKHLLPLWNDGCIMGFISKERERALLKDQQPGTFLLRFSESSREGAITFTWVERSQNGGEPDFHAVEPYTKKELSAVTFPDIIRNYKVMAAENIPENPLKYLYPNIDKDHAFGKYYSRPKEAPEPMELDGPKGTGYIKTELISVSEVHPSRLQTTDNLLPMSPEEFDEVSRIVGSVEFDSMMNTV
Procedure: Under the reaction conditions described above, each oligonucleotide (at 2×10^-9 M or otherwise stated) was mixed with 0.55×10^-9 M dimer of purified phosphorylated Stat1 protein. The reaction volume was scaled up to 100 μl. The reaction was incubated for 5–15 min at room temperature and for time zero, an aliquot (10 μl) was removed and loaded directly onto a pre-run polyacrylamide gel (see above). Afterwards, a 100×molar excess of homologous unlabelled DNA (in less than 1% of the reaction volume) was added. At subsequent time points (indicated in FIGS. 5C–5D, and 7) 10 μl aliquots were withdrawn and also loaded onto the running gel (at 10 V/cm). After entering the final time point (after 30–45 min), electrophoresis was continued at 20 V/cm until the unbound labelled DNA-fraction reached the bottom of the gel. Gels were dried, exposed to X-ray film and labelled protein/DNA complexes and unbound labelled DNA were quantitated as described above. The half life was determined from a semi-log plot of the numerical data (shifted radioactivity over shifted radioactivity at time zero versus time). For many sequences studied, the half life was too short ([…]) to be determined by EMSA. All experiments were performed at least twice with the different oligonucleotides. […]

[3] = molecular target: Stat1beta, phosphorylated Tyr701 (Homo sapiens, UniProt P42224-2 P42224-2:1-712); test: EMSA; 2x(dimer) complex stabilized as with Stat1alpha; conditions: tags: baculovirus/Sf9; NEM-alkylated; phosphorylated in vitro by EGF-receptor kinase; chain copies: 2; label: 32P; protruding 5'-TCC; two tandem sites
Chain of Stat1beta, phosphorylated Tyr701 (P42224 1-712, one chain of several): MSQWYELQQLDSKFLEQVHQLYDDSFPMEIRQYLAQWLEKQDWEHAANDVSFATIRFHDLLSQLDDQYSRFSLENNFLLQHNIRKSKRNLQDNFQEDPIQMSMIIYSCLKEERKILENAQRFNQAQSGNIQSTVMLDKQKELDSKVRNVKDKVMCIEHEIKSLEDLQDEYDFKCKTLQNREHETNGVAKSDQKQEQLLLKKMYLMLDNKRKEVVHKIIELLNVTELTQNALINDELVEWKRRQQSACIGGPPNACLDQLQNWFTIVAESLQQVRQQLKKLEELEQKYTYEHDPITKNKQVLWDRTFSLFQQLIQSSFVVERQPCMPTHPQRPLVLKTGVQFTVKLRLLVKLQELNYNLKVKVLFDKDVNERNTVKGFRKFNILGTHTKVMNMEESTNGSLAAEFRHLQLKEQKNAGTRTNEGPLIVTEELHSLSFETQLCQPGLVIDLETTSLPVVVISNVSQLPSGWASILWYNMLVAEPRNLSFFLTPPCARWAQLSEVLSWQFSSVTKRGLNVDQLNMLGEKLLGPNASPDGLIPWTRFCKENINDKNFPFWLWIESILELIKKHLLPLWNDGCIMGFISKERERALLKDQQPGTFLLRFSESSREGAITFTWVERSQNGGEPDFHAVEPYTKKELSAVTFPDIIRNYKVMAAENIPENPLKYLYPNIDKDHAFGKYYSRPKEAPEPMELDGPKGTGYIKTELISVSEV

[4] = molecular target: T1, Stat1alpha, phosphorylated Tyr701; test: EMSA; apparent Keq, dimer; 40 mM KCl, 10 mM MgCl2, 10 mM CaCl2, RT; complex half-life <0.5 min; conditions: tags: baculovirus/Sf9; NEM-alkylated; phosphorylated in vitro by EGF-receptor kinase; chain copies: 2; label: 32P; protruding 5'-TCC
[5] = molecular target: T1, Stat1alpha, phosphorylated Tyr701; test: EMSA; binding unaffected by NEM alkylation; no difference from Stat1tc in off-rate; conditions: tags: baculovirus/Sf9; NEM-alkylated; phosphorylated in vitro by EGF-receptor kinase; chain copies: 2; label: 32P; protruding 5'-TCC
Description: Figure 3A: FIG. 3A. DNA binding of purified phosphorylated Stat1α (lane 1) and Stat1tc (lane 2) using as a probe the radioactively labelled cfosWT sequence. Binding reactions contained equimolar amounts of the respective proteins. The position of migration of the free DNA probe (free) and the protein/DNA complex (bound) is indicated. Note the presence of a slower migrating band only with the full length Stat1α, lane 1 (see also FIG. 3B). Figure 3B: FIG. 3B. Influence of cysteine alkylation on the DNA binding activity of Stat1α. A mixture of phosphorylated and unphosphorylated protein (0.23 µM final; ~15% phosphoprotein) was reacted in the presence of 0.8 mM DTT and the indicated concentrations of N-ethyl-maleimide (NEM) for 20 min at room temperature in a volume of 12.5 µl. The reaction was stopped with DTT (final concentration of 10 mM) followed by the addition of 1.5 pmoles of labelled probe (cfosM67). Samples were resolved on a 4.5% native polyacrylamide gel. (M) denotes the position of bromophenol blue (lower) and xylene cyanol (upper) markers.
Electrophoretic mobility shift assays (EMSA) (Fried and Crothers, 1981; Garner and Revzin, 1981) were used to test DNA binding of tyrosine phosphorylated Stat1α and Stat1tc. […] In addition, the DNA binding ability of homodimeric phosphorylated Stat1α or its truncated form was highly resistant to up to 2 Molar monovalent salt concentrations.

[6] = molecular target: T1, Stat1alpha, phosphorylated Tyr701; test: EMSA; stabilization indistinguishable from 10 bp spacing; conditions: tags: baculovirus/Sf9; NEM-alkylated; phosphorylated in vitro by EGF-receptor kinase; chain copies: 2; label: 32P; protruding 5'-TCC; two tandem sites
Procedure: Under the reaction conditions described above, each oligonucleotide (at 2×10^-9 M or otherwise stated) was mixed with 0.55×10^-9 M dimer of purified phosphorylated Stat1 protein. The reaction volume was scaled up to 100 μl. The reaction was incubated for 5–15 min at room temperature and for time zero, an aliquot (10 μl) was removed and loaded directly onto a pre-run polyacrylamide gel (see above). Afterwards, a 100×molar excess of homologous unlabelled DNA (in less than 1% of the reaction volume) was added. At subsequent time points (indicated in FIGS. 5C–5D, and 7) 10 μl aliquots were withdrawn and also loaded onto the running gel (at 10 V/cm). After entering the final time point (after 30–45 min), electrophoresis was continued at 20 V/cm until the unbound labelled DNA-fraction reached the bottom of the gel. Gels were dried, exposed to X-ray film and labelled protein/DNA complexes and unbound labelled DNA were quantitated as described above. The half life was determined from a semi-log plot of the numerical data (shifted radioactivity over shifted radioactivity at time zero versus time). For many sequences studied, the half life was too short ([…]) to be determined by EMSA. All experiments were performed at least twice with the different oligonucleotides.
Figure 7B: FIG. 7B. […]

Chain of Stat1tc, phosphorylated Tyr701 (Homo sapiens) (P42224 whole entry): as the sequence (P42224 whole entry, one chain of several) above

GTATTCCTGTAAGATCT (double strand) [Ly6E]
Kd ([1]; dimer concentration at half saturation, weak site): 1 nM

GTATTCCCGTCAATGCA (double strand) [cfosWT]
Kd ([1]; apparent Keq, dimer, 40 mM KCl, 10 mM MgCl2, 10 mM CaCl2, RT): 1 nM

GTTGTTCCGGGAAAAGG (double strand) [S1]
Kd ([1]; dimer concentration at half saturation, strong site): 1 nM

GATTTCCCGTAAATCAT (double strand) [cfosM67]
Kd ([1]; stated as same result for several oligonucleotides, complex half-life about 3 min (FIG. 5D)): 1 nM

B1: 2x cfosWT (10 bp spacing) (dsDNA)
DNA 1: AGTCAGTTCCCGTCAATGCATCAGGTTCCCGTCAATGCAT
DNA 2: ATGCATTGACGGGAACCTGATGCATTGACGGGAACTGACT
binding result [2]: binds
binding result [3]: binds

B2: cfosWT (dsDNA)
DNA 1: GTATTCCCGTCAATGCA
DNA 2: TGCATTGACGGGAATAC
Kd [4]: ~1 nM

B3: cfosM67 (dsDNA)
DNA 1: GATTTCCCGTAAATCAT
DNA 2: ATGATTTACGGGAAATC
binding result [5]: binds

B4: 2x cfosWT (15 bp spacing) (dsDNA)
DNA 1: AGTCAGTTCCCGTCAATGATCGCTACAGAGTTCCCGTCAAGCA
DNA 2: TGCTTGACGGGAACTCTGTAGCGATCATTGACGGGAACTGACT
binding result [6]: binds
